According to the supplement of paper PMC9112550, “Optimization of the antimicrobial peptide Bac7 by deep mutational scanning” (BMC Biology, 2022):

Test system: Escherichia coli TOP10
Test: shrunken log2 fold change of peptide-encoding DNA abundance (4.5 h post-induction vs induction); higher = less antimicrobial activity (less host growth inhibition)
Conditions: time post-induction: 4.5 h; library: site-saturation at positions 5, 18, 19, 20
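Note: peptides expressed intracellularly from a pBAD plasmid library in pooled LB shake-flask culture, induced with 0.3% L-arabinose, DNA abundance read by NGS, three biological replicates, DESeq2 with apeglm shrinkage.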

Sequence	shrunken log2 fold change
RRIRDRPPRLPRPRPRPRAYPRP	-0.212
RRIRDRPPRLPRPRPRPRCYPRP	0.105
RRIRDRPPRLPRPRPRPRDQPRP	0.477
RRIRDRPPRLPRPRPRPRDYPRP	0.0389
RRIRDRPPRLPRPRPRPRETPRP	0.567
RRIRDRPPRLPRPRPRPREVPRP	0.454
RRIRDRPPRLPRPRPRPRFIPRP	-0.233
RRIRDRPPRLPRPRPRPRFQPRP	0.491
RRIRDRPPRLPRPRPRPRGLPRP	0.825
RRIRDRPPRLPRPRPRPRGPPRP	0.366
RRIRDRPPRLPRPRPRPRLGPRP	0.829
RRIRDRPPRLPRPRPRPRLHPRP	0.11
RRIRDRPPRLPRPRPRPRLYPRP	-0.0462
RRIRDRPPRLPRPRPRPRMDPRP	-0.0354
RRIRDRPPRLPRPRPRPRMIPRP	-0.237
RRIRDRPPRLPRPRPRPRMSPRP	-0.149
RRIRDRPPRLPRPRPRPRNCPRP	-0.152
RRIRDRPPRLPRPRPRPRNHPRP	-0.641
RRIRDRPPRLPRPRPRPRQAPRP	0.102
RRIRDRPPRLPRPRPRPRQRPRP	0.708
RRIRDRPPRLPRPRPRPRSVPRP	0.165
RRIRDRPPRLPRPRPRPRVGPRP	0.972

Sequence	shrunken log2 fold change
RRIRDRPPRLPRPRPRPRVIPRP	-0.305
RRIRDRPPRLPRPRPRPRVRPRP	0.106
RRIRDRPPRLPRPRPRPRVWPRP	0.352
RRIRDRPPRLPRPRPRPRWTPRP	0.289
RRIRDRPPRLPRPRPRPRYDPRP	-0.284
RRIRDRPPRLPRPRPRPSCQPRP	0.17
RRIRDRPPRLPRPRPRPSDEPRP	0.406
RRIRDRPPRLPRPRPRPSDIPRP	-0.0124
RRIRDRPPRLPRPRPRPSFKPRP	-0.0471
RRIRDRPPRLPRPRPRPSFRPRP	-0.198
RRIRDRPPRLPRPRPRPSGDPRP	0.163
RRIRDRPPRLPRPRPRPSHRPRP	0.102
RRIRDRPPRLPRPRPRPSHVPRP	-0.401
RRIRDRPPRLPRPRPRPSIGPRP	0.154
RRIRDRPPRLPRPRPRPSISPRP	-0.0844
RRIRDRPPRLPRPRPRPSKLPRP	-0.317
RRIRDRPPRLPRPRPRPSKVPRP	-0.152
RRIRDRPPRLPRPRPRPSNDPRP	0.0978
RRIRDRPPRLPRPRPRPSNEPRP	-1.13
RRIRDRPPRLPRPRPRPSNYPRP	-0.29
RRIRDRPPRLPRPRPRPSPHPRP	-0.0473
RRIRDRPPRLPRPRPRPSREPRP	-0.0011

Sequence	shrunken log2 fold change
RRIRDRPPRLPRPRPRPSRSPRP	0.0199
RRIRDRPPRLPRPRPRPSSAPRP	0.0666
RRIRDRPPRLPRPRPRPSSPPRP	-0.341
RRIRDRPPRLPRPRPRPSTFPRP	0.11
RRIRDRPPRLPRPRPRPSWQPRP	0.321
RRIRDRPPRLPRPRPRPSWRPRP	0.0848
RRIRDRPPRLPRPRPRPTCPPRP	-0.119
RRIRDRPPRLPRPRPRPTCWPRP	1.09
RRIRDRPPRLPRPRPRPTDVPRP	-0.0358
RRIRDRPPRLPRPRPRPTEAPRP	0.405
RRIRDRPPRLPRPRPRPTEIPRP	0.23
RRIRDRPPRLPRPRPRPTELPRP	0.103
RRIRDRPPRLPRPRPRPTEYPRP	-0.154
RRIRDRPPRLPRPRPRPTFIPRP	-0.13
RRIRDRPPRLPRPRPRPTFWPRP	0.588
RRIRDRPPRLPRPRPRPTHAPRP	0.148
RRIRDRPPRLPRPRPRPTHRPRP	0.0815
RRIRDRPPRLPRPRPRPTIFPRP	0.0643
RRIRDRPPRLPRPRPRPTILPRP	0.242
RRIRDRPPRLPRPRPRPTIRPRP	0.124
RRIRDRPPRLPRPRPRPTKRPRP	0.123
RRIRDRPPRLPRPRPRPTKYPRP	-0.286

Sequence	shrunken log2 fold change
RRIRDRPPRLPRPRPRPTLFPRP	0.533
RRIRDRPPRLPRPRPRPTMAPRP	0.695
RRIRDRPPRLPRPRPRPTMCPRP	-0.107
RRIRDRPPRLPRPRPRPTNEPRP	0.265
RRIRDRPPRLPRPRPRPTNFPRP	-0.208
RRIRDRPPRLPRPRPRPTNHPRP	-0.247
RRIRDRPPRLPRPRPRPTPTPRP	0.194
RRIRDRPPRLPRPRPRPTQNPRP	0.789
RRIRDRPPRLPRPRPRPTSDPRP	0.347
RRIRDRPPRLPRPRPRPTSKPRP	0.168
RRIRDRPPRLPRPRPRPTVMPRP	-0.221
RRIRDRPPRLPRPRPRPTVVPRP	0.149
RRIRDRPPRLPRPRPRPTWCPRP	0.18
RRIRDRPPRLPRPRPRPTWNPRP	-0.07
RRIRDRPPRLPRPRPRPTYFPRP	-0.0127
RRIRDRPPRLPRPRPRPTYQPRP	-0.0238
RRIRDRPPRLPRPRPRPTYRPRP	-0.224
RRIRDRPPRLPRPRPRPTYTPRP	0.319
RRIRDRPPRLPRPRPRPTYWPRP	0.01
RRIRDRPPRLPRPRPRPVCFPRP	0.599
RRIRDRPPRLPRPRPRPVCTPRP	0.0514
RRIRDRPPRLPRPRPRPVCWPRP	0.747

Sequence	shrunken log2 fold change
RRIRDRPPRLPRPRPRPVKLPRP	-0.896
RRIRDRPPRLPRPRPRPVKSPRP	-0.00931
RRIRDRPPRLPRPRPRPVKWPRP	0.00911
RRIRDRPPRLPRPRPRPVLKPRP	0.0359
RRIRDRPPRLPRPRPRPVMWPRP	0.783
RRIRDRPPRLPRPRPRPVPLPRP	0.0621
RRIRDRPPRLPRPRPRPVPQPRP	0.0622
RRIRDRPPRLPRPRPRPVRFPRP	0.189
RRIRDRPPRLPRPRPRPVSLPRP	-0.442
RRIRDRPPRLPRPRPRPVTSPRP	-0.2
RRIRDRPPRLPRPRPRPVVNPRP	0.24
RRIRDRPPRLPRPRPRPVVWPRP	0.902
RRIRDRPPRLPRPRPRPVWIPRP	-0.125
RRIRDRPPRLPRPRPRPVYLPRP	-0.219
RRIRDRPPRLPRPRPRPWAFPRP	-0.01
RRIRDRPPRLPRPRPRPWEMPRP	0.335
RRIRDRPPRLPRPRPRPWFKPRP	-0.203
RRIRDRPPRLPRPRPRPWFLPRP	0.109
RRIRDRPPRLPRPRPRPWGNPRP	-0.0163
RRIRDRPPRLPRPRPRPWHCPRP	0.102
RRIRDRPPRLPRPRPRPWILPRP	-0.201
